Values belong to the molecule of their own block, whether it stands above or below them.
Legend:
[1] = target: unlabelled hTBP (human TATA-box Binding Protein) (human) (UniProt P20226); experiment: single-molecule two-colour nanometer co-localisation
His-tagged Rap74 = target: T1, His-tagged Rap74 (human, UniProt P35269 1-517); experiment: reconstitution by refolding and Ni-NTA co-purification
T1 sequence (looked up): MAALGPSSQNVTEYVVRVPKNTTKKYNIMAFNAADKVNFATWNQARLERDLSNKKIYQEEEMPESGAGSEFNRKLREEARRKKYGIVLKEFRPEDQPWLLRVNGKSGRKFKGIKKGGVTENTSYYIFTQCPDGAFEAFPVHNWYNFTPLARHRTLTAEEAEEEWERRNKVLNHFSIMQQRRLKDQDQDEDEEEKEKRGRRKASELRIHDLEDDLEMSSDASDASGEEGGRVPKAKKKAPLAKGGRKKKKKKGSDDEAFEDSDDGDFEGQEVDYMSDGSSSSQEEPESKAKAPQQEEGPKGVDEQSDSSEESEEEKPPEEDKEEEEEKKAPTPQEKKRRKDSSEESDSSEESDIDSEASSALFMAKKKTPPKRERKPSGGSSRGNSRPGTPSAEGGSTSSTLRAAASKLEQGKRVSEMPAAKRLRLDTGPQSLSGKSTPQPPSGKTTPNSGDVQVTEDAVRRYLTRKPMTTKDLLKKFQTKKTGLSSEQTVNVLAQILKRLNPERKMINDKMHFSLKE

- percent of TFIIA spots co-localised with TATA-box DNA in the presence of TBP [1]: 45%
Molecule: Alexa647-labelled hTFIIA (from UniProt P52655 1-376; P52657 1-109) (complex)

- binding result (His-tagged Rap74): binds
B1: Rap30 (natural protein, human, UniProt P13984 1-249, looked up)
chain: MAERGELDLTGAKQNTGVWLVKVPKYLSQQWAKASGRGEVGKLRIAKTQGRTEVSFTLNEDLANIHDIGGKPASVSAPREHPFVLQSVGGQTLTVFTESSSDKLSLEGIVVQRAECRPAASENYMRLKRLQIEESSKPVRLSQQLDKVVTTNYKPVANHQYNIEYERKKKEDGKRARADKQHVLDMLFSAFEKHQYYNLKDLVDITKQPVVYLKEILKEIGVQNVKGIHKNTWELKPEYRHYQGEEKSD
